Key:
Assay in all cases: purified protein
Type in all cases: biochemical, Homo sapiens
[1] = system: T1, Cc1cc2nc3c(=O)[nH]c(=O)nc-3n(C[C@H](O)[C@H](O)[C@H](O)COP(=O)(O)O)c2cc1C; settings: forward reaction, 100 µM ATP, 5 mM MgCl2, 50 mM Tris/HCl pH 7.5, 37 °C
T1 construct: 320-residue isoform 6, FADSy domain only, lacks N-terminal FADHy domain; monomer

[2] = system: T2, Nc1ncnc2c1ncn2[C@@H]1O[C@H](COP(=O)(O)OP(=O)(O)OP(=O)(O)O)[C@@H](O)[C@H]1O; settings: forward reaction, 5 mM MgCl2, 50 mM Tris/HCl pH 7.5, 37 °C
T2 construct: 320-residue isoform 6, FADSy domain only, lacks N-terminal FADHy domain; monomer

[3] = system: T3, O=P(O)(O)OP(=O)(O)O; settings: reverse reaction, 0.5 µM FAD, 5 mM MgCl2, 50 mM Tris/HCl pH 7.5, 37 °C
T3 construct: 320-residue isoform 6, FADSy domain only, lacks N-terminal FADHy domain; monomer

Sequence of hFADS6 (human FAD synthase isoform 6) (Homo sapiens; D505A) (chain, as listed by the source D505A): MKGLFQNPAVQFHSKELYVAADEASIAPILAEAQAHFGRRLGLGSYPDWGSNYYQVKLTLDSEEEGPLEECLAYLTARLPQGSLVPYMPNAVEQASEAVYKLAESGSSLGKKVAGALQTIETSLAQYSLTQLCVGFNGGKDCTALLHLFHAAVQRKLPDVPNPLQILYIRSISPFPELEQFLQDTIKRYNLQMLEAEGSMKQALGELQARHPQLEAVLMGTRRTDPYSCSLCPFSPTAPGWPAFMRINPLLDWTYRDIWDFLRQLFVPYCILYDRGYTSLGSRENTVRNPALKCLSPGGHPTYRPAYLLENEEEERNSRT
Sequence of hFADS6 (human FAD synthase isoform 6) (Homo sapiens) (chain, as listed by the source): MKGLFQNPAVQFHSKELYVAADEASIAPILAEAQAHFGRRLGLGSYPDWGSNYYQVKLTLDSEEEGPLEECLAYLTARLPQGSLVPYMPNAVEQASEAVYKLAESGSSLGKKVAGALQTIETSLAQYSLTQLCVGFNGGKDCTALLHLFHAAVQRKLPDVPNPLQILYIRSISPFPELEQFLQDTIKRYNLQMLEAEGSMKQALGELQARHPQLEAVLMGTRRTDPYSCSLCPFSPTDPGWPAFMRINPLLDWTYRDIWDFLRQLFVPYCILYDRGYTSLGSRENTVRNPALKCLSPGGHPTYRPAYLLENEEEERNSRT

Row | Substance | Km [1] | kcat [1] | Km ([2]; 2 µM FMN) | kcat ([2]; 2 µM FMN) | Km [3] | Km ([2]; 3 µM FMN) | kcat ([2]; 3 µM FMN)
1 | hFADS6 (human FAD synthase isoform 6) (Homo sapiens) | 0.13 ± 0.01 µM | 0.047 ± 0.001 s⁻¹ | 6.9 ± 0.5 µM | 0.050 ± 0.001 s⁻¹ | 42 ± 6 µM |  | 
2 | hFADS6 (human FAD synthase isoform 6) (Homo sapiens; D505A) | 1.3 ± 0.3 µM | 0.103 ± 0.007 s⁻¹ |  |  | 60 ± 8 µM | 44 ± 4 µM | 0.093 ± 0.003 s⁻¹
